In the domain aggregation screens of Martell et al. (2025):

test: soluble fraction after stress (log2 fold change); higher = more stays soluble; pooled small domains, quantitative proteomics; settings: stress: pH 4
Summary of the method: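 Custom libraries of small protein domains were pooled and measured with high-throughput quantitative proteomics after pH 4 stress. The read-out is the fold change in the amount of each domain that stays soluble after the acid stress, taken as a measure of aggregation propensity. Fold changes are on a log2 scale, and higher values mean more of the domain stayed soluble.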

| Sequence | soluble fraction (log2) |
| --- | --- |
| HMQSHIVPDVKSQHIAQAKALLESKQMKAVVIDSNFVKGLPAGIVLDQTPIGGARVKENRTIYLTINTL | 0.0867 |
| HMQSMEIDENEIPSIDKLSEYIEYFKRIYNALFDDKQLAITNIDVLERHFANNFNTLRFKMDE | -0.534 |
| HMQSNDAGELEAVVKGIIDANPKVVADYLAGNQKVVSFFVGQAMKATKGKANPKMVSEILGKLL | ≥ 0.43 |
| HMQSQIAQLYNPLLGYVKKRINSREDAEDLTQDIFLKLSKSNKDGVDNLKSWLYTIAKNTITDYYRKKKII | -0.0414 |
| HMQSREISYSDFVASVERGEVATVILDGENIRFKGGDNVEYVTVRPADTNVTDLLIENQVVVRAEK | -0.824 |
| HMQSTVSTHQKTLALDTAQSGIPVFPVSSTHKRPLTDHGYKDATADADAVRKIWQQFPSAFV | 0.22 |
| HMQSVKTQPLRDWLLAHFDKPYPDDEDKVRLAEASGMTRAQVGNWFINARVRTWRPMVLDLGEEIERESV | -0.521 |
| HMQTEFVISSGEQPKRLDVFLLQREPYLSRAALQRMIAAGWVRVNNHLAKSSQRIKAGDVIVFD | 0.0697 |
| HMQTFGTMIAALRKEQGMTQLELAEKMGVTDKAVSKWERDLSFPDVNSLPKLAEIFHVSVDEL | 0.216 |
| HMQTLGADLRALRKARGLTLTDMAETLGRSVGWLSQVERDLSEPSITDLRHMARTLGVSVSMLFS | -0.553 |
| HMQTLQNNLKQIRSRVGLTQGELASRAGISRQAYSTLESGNANPSTEVSLRLAEALNERIESLFFLANQ | -0.846 |
| HMQTSETVYTTDKVNVRAGADTSSDKLGSVEKGTSLTRTGTDGDWSIIDYNGTTGYIKSEYLSATAPE | 0.316 |
| HMQTTKTGTITASSLYVRSGASTSHKVLGTVSKGKTVQIKDTQDGWHKISYNGDHGWVSGKYVSTT | ≥ 0.43 |
| HMQTTVHLSPEEMVIMNALKQESPIDLPILRAQVEMSNKLWDTSMKNLSKLGQLKVEKIGEQVSVSLI | ≥ 0.43 |
| HMQVAPDLMQRLTSQGHVDEKLSDALVHARQITNFEGRRRQMQFIGKLMRKLSEESIEAVKDALNEQRM | -0.244 |
| HMQVDENNINKRIDKYLSENTEYSRSTIQKMIDNGNITVNSKPTKSSYKLELNDIITIDNNFKE | -0.0731 |
| HMQVEYTRGELIQDLEGGKIVYAGISPSRETPTGEVNFILDSGLTRTLYVTDVSEIEQLLISYDIDPEVKK | -1.63 |

| Sequence | soluble fraction (log2) |
| --- | --- |
| HMQVFDSNEIDEVVKKVIENNPQAVADFKKGKSNALQFLAGQVMRETKGRFNPNVVQERIRLLLT | 0.256 |
| HMQVLLTRREKEILKLIAEGLTSAEIGKRLFISTTTVDTHRKHLLEKLKAGNTAILIKTAVQLDLI | -0.223 |
| HMQVPWYQRLKEKRLEYGVSQNKLATHIGISRQYMSEIETGKVTPSDSLQATLFDILEQFNPDA | -0.74 |
| HMQVRVERSRDKVVISGVNYYIHPVRKGETVYSIARAYGITTQDLVRENPSAAEGLKEGQSIRIPERLVD | 0.22 |
| HMQVSDEGPIKAILQEVLDKSPTQLADYASGKVKLRQYFFGEAMKALKGKANPQVINKLLDEMLPPVAA | -0.178 |
| HMQVSDVTELRTILEKVITENESVATEFKEGKDAAMNFLVGQGMKATRGAADPALLKEIITGIL | -0.358 |
| HMQVSITGYLGGEKIGLFDDAKFKALAAKQGIAIDYRKAGSPAMMDADRKGMDYLFPSSRAAVEYGNAKGV | 0.144 |
| HMQVTDTGTIEGEIDKVLAANPDRVTEYHDGKEKILGWFVGQVMQTTKGKANPQMVNQLFLEKLK | -0.00465 |
| HMQVTPQVLRLLDVLGDKELSLRQIAEALGLSDRKNIMRNYVVPALDSGRVVRTVPNKPNSRFQKYRK | 0.0808 |
| HMQYDALVLNLLQEKNLTSESLKDAQRAFAKSHNLSTLPSKSQILQAYFQLLEQGKIEKNPDFELLL | 0.0152 |
| HMQYFDIETEIQKFIKSENNLSDFDKETLQSFLYQLSKGSPEENTAKKVVDILNKFLPLTTAIINMIKALT | -0.381 |
| HMQYYITKIANYDQVSPNLLVRTAEGQYMVKTNADILDTDVTKLTEEEIRKDWGYLFENGFSELV | -0.681 |
| HMRAAEPTTDAQRDRRRRIVLTAMTMLQERGYDEIQMRDVAQQAGVALGTLYRYFPSKEQLFAHVLVE | -0.68 |
| HMRAAFEHLTIGQTVSGLVKSQARGVSLVEIEGQTVAMRLPQPVAVGDTLRLRFAGHMPQPVFLLDT | -0.0299 |
| HMRADYVGGLDPAGDNFLALRTGPGSGYAMILPMGPGTFVTVLRRNGKWLLVELEDGTRGWAYGSYILG | -1.16 |
| HMRAGALTTLTERERNVFDLVVTGHSNPEIARQLSIADVTVKTHVGHILSKLGVRDRVHLVIWAHRQGLAD | 0.0561 |
| HMRAMWENLFFQYKEGFLPEEYYKQGIATGIRLAGPKFVEMNIPMQKEFEDEVHRLLAEHEKSVK | -0.795 |
